The target in data set [1] is MTA1-A (residues 162–354) (human) (UniProt Q13330). Briefly: SEC-MALS; gel-filtrated co-expressed complexes at 1 mg/ml reapplied to Superdex S200; Optilab T-rEX and DAWN HELEOS detectors. For orientation: Size exclusion chromatography separates by hydrodynamic size, large species first.
The target of data set [2] is MTA1-B (residues 162–546) (human) (UniProt Q13330). Briefly: affinity purification with mass spectrometry; Flag-tagged MTA1 fragments co-transfected with HDAC1 in HEK293F; complexes purified on FLAG resin; endogenous RBBP4/7 identified by peptide mass spectrometry; ratio by densitometry of the SDS-PAGE gel (ImageJ).
Data set [3] deals with MTA1-C (residues 162–715) (human) (UniProt Q13330). Described as above.
For data set [4], the target named is T1, HDAC1 (residues 1–482), untagged (human, UniProt Q13547 1-482).
T1 construct: Histone deacetylase 1 (HDAC1), residues 1-482; source: HEK293F, co-transfected with MTA1 fragments, co-purified (FLAG resin through MTA1, TEV elution, Superdex S200)
T1 sequence (Q13547 whole entry, the tested form may be a part): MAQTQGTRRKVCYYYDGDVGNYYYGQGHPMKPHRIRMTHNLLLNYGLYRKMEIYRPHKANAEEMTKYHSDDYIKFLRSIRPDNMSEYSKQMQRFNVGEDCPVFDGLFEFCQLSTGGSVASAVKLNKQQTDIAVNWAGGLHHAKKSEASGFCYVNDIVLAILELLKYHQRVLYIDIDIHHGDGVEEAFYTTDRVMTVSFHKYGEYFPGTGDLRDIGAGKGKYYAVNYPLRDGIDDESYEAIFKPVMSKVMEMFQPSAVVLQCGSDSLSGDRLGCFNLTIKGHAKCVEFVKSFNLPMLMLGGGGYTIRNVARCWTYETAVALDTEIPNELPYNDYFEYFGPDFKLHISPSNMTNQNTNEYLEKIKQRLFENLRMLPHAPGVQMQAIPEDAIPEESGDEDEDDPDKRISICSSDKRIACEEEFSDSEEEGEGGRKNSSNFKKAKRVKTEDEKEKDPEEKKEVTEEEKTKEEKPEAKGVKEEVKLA
Briefly: SAXS; purified co-expressed complexes, 1 to 5 mg/ml, 25°C, Diamond B21; ab initio envelopes. As to conditions: both partners purified.

In data set [5] the target is T2, RBBP4 (residues 1–425), untagged (human, UniProt Q09028 1-425).
T2 construct: also called RbAp48; source: HEK293F, co-transfected with MTA1 fragments, co-purified (FLAG resin through MTA1, TEV elution, Superdex S200)
T2 sequence (Q09028 whole entry, the tested form may be a part): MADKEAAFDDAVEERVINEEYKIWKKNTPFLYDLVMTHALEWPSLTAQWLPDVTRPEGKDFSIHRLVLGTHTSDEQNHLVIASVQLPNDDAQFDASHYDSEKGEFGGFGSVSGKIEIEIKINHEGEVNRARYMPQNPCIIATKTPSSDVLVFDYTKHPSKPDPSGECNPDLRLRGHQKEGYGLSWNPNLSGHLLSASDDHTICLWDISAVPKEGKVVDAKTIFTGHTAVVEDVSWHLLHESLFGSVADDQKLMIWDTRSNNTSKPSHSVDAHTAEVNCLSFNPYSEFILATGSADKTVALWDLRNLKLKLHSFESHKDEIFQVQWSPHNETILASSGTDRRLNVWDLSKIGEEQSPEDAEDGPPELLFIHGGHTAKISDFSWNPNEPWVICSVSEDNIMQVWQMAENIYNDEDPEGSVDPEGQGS
Briefly: SEC-MALS; gel-filtrated co-expressed complexes at 1 mg/ml reapplied to Superdex S200; Optilab T-rEX and DAWN HELEOS detectors. As to conditions: both partners purified.

Data set [6] concerns the molecule itself. The data set is described as above.

As for “MTA1-A (residues 162–354) (from UniProt Q13330 162-354) (domain or fragment)”, the stoichiometry N (copies in the complex) in data set [1] is 2.

Turning to “endogenous RBBP4/7 (from UniProt Q09028 1-425) (natural protein)”, the values for the ratio HDAC1:RBBP4/7 (gel densitometry) (RBBP4/7 per HDAC1) in data set [2] and in data set [3] were 1 and 1.5, respectively.

B1: MTA1-B (residues 162–546) (domain or fragment, human, UniProt Q13330 162-546, looked up)
chain: ADKGEIRVGNRYQADITDLLKEGEEDGRDQSRLETQVWEAHNPLTDKQIDQFLVVARSVGTFARALDCSSSVRQPSLHMSAAAASRDITLFHAMDTLHKNIYDISKAISALVPQGGPVLCRDEMEEWSASEANLFEEALEKYGKDFTDIQQDFLPWKSLTSIIEYYYMWKTTDRYVQQKRLKAAEAESKLKQVYIPNYNKPNPNQISVNNVKAGVVNGTGAPGQSPGAGRACESCYTTQSYQWYSWGPPNMQCRLCASCWTYWKKYGGLKMPTRLDGERPGPNRSNMSPHGLPARSSGSPKFAMKTRQAFYLHTTKLTRIARRLCREILRPWHAARHPYLPINSAAIKAECTARLPEASQSPLVLKQAVRKPLEAVLRYLETHPR
notes: Captured on FLAG resin by the tag, then released with TEV; Two copies in the dimeric MTA1-B:HDAC1:RBBP4 complex by MALS; not shown: His10, N-terminal, cleaved; Flag3, N-terminal, cleaved
The term stoichiometry N denotes a count of units in the complex or per binding partner. On to B1, for which the binding result in data set [4] and in data set [5] was “binds” in each case. Further, in data set [6], the “stoichiometry N” value turned out to be 2 copies in the complex.

(Values after paper PMC4841774 (eLife, 2016).)
